B1: MATN2 (parent)
chain: VNVPGSFVCQCYSGYALAEDGKRC
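Also: lentivirally expressed fusions sorted by FACS into six bins by GFP to DsRed ratio, PSI derived from sequencing read proportions per bin multiplied by bin number.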

The variants in the series derive from B1. In words: protein stability index of a GFP-peptide fusion (GPS, HEK-293T) (PSI 1-6); higher = more stable. The settings on record: c terminus: a fixed tail appended.
Consider VNKPGSFVCQCYSGYALAEDGKRC, for which the protein stability index turned out to be 2.82. On to VNSPGSFVCQCYSGYALAEDGKRC, for which the protein stability index is 2.16. As for VNIPGSFVCQCYSGYALAEDGKRC, the protein stability index amounted to 1.23. The value for VNQPGSFVCQCYSGYALAEDGKRC was 2.26; that for VNRPGSFVCQCYSGYALAEDGKRC was 2.05; that for VNNPGSFVCQCYSGYALAEDGKRC was 1.73. In the case of VNAPGSFVCQCYSGYALAEDGKRC, the protein stability index came to 1.49. The value for VNVPGSFVCQCYSGYYLAEDGKRC was 1.1; that for VNVPGSFVCQCYSGYILAEDGKRC was 2.11; that for VNVPGSFVCQCYSGYHLAEDGKRC was 2.77.

Turning to VNVPGSFVCQCYSGYRLAEDGKRC, the protein stability index came out at 1.52.

Consider VNVPGSFVCQCYSGYTLAEDGKRC, for which the protein stability index was 1.93. For VNVPGSFVCQCYSGYQLAEDGKRC, the protein stability index turned out to be 1.97.

Take VNVPGSFVCQCYSGYVLAEDGKRC: the protein stability index is 1.62. As to VNVPGSFVCQCYSGYCLAEDGKRC, the protein stability index was found to be 3.35.

As for VNVPGSFVCQCYSGYKLAEDGKRC, the protein stability index was determined as 1.91. Regarding VNVPGSFVGQCYSGYALAEDGKRC, the protein stability index worked out at 2.8. Consider VNVPGSFVFQCYSGYALAEDGKRC, for which the protein stability index came to 2.54. On to VNVPGSFVMQCYSGYALAEDGKRC, for which the protein stability index amounted to 2.28. With VNVPGSFVNQCYSGYALAEDGKRC, the protein stability index is 3.12.

On to VNVPGSFVSQCYSGYALAEDGKRC, for which the protein stability index stood at 3.15. Take VNVPGSFVVQCYSGYALAEDGKRC: the protein stability index is 2.32. Consider VNVPGSFVWQCYSGYALAEDGKRC, for which the protein stability index is 2.21. As to VNVPGSFVEQCYSGYALAEDGKRC, the protein stability index turned out to be 3.33. With VNVPGSFVRQCYSGYALAEDGKRC, the protein stability index came out at 2.69. On to VNVPGSFVIQCYSGYALAEDGKRC, for which the protein stability index turned out to be 1.5.

As to VNVPGSFVQQCYSGYALAEDGKRC, the protein stability index was found to be 2.97. With VNVPGSFVCQCYSGYALAEAGKRC, the protein stability index amounted to 1.9. With VNVPGSFVCQCYSGYALAECGKRC, the protein stability index amounted to 3.42. For VNVPGSFVCQCYSGYALAEWGKRC, the protein stability index was determined as 1.57.

As for VNVPGSFVCQCYSGYALAEIGKRC, the protein stability index was determined as 2.81. Regarding VNVPGSFVCQCYSGYALAETGKRC, the protein stability index stood at 2.12. The figure for VNVPGSFVCQCYSGYALAELGKRC is 1.11; for VNVPGSFVCQCYSGYALAEEGKRC it is 1.85. The value for WNVPGSFVCQCYSGYALAEDGKRC was 2.91; that for YNVPGSFVCQCYSGYALAEDGKRC was 2.85. NNVPGSFVCQCYSGYALAEDGKRC: the protein stability index came to 2.06. As for QNVPGSFVCQCYSGYALAEDGKRC, the protein stability index stood at 2.01. Take KNVPGSFVCQCYSGYALAEDGKRC: the protein stability index was 1.92. As to TNVPGSFVCQCYSGYALAEDGKRC, the protein stability index is 2.36. Regarding HNVPGSFVCQCYSGYALAEDGKRC, the protein stability index amounted to 1.96. For the variant PNVPGSFVCQCYSGYALAEDGKRC, the protein stability index was 2.86. With SNVPGSFVCQCYSGYALAEDGKRC, the protein stability index was 3.31. As to FNVPGSFVCQCYSGYALAEDGKRC, the protein stability index stood at 3.08. With VNVPGSFVCNCYSGYALAEDGKRC, the protein stability index was found to be 2.31. VNVPGSFVCLCYSGYALAEDGKRC: the protein stability index was 2.46. Consider VNVPGSFVCHCYSGYALAEDGKRC, for which the protein stability index came to 1.78. With VNVPGSFVCDCYSGYALAEDGKRC, the protein stability index was 2.47. For the variant VNVPGSFVCVCYSGYALAEDGKRC, the protein stability index turned out to be 2.08. The figure for VNVPGSFVCRCYSGYALAEDGKRC is 2.01; for VNVPGSFVCQCYSGYALLEDGKRC it is 2.32; for VNVPGSFVCQCYSGYALYEDGKRC it is 2.84. As to VNVPGSFVCQCYSGYALTEDGKRC, the protein stability index worked out at 2. As for VNVPGSFVCQCYSGYALMEDGKRC, the protein stability index came out at 1.34. As for VNVPGSFVCQCYSGYALNEDGKRC, the protein stability index was 2.09. For VNVPGSFVCQCYSGYALKEDGKRC, the protein stability index came to 1.73. VNVPGSFVCQCYSGYALAEDGKRV: the protein stability index turned out to be 3.76. As for VNVPGSFVCQCYSGYALAEDGKRL, the protein stability index is 1.86. Take VNVPGSFVCQCYSGYALAEDGKRA: the protein stability index came out at 1.73.

On to VNVPGSFVCQCYSGYALAEDGKRN, for which the protein stability index turned out to be 2.72. The figure for VNVPGSFVCQCYSGYALAEDGKRG is 2.18; for VNVPGSRVCQCYSGYALAEDGKRC it is 3.21. For the variant VNVPGSPVCQCYSGYALAEDGKRC, the protein stability index was found to be 3.13.

With VNVPGSEVCQCYSGYALAEDGKRC, the protein stability index was found to be 2.94. The figure for VNVPGSIVCQCYSGYALAEDGKRC is 1.92; for VNVPGSHVCQCYSGYALAEDGKRC it is 3.02; for VNVPGSLVCQCYSGYALAEDGKRC it is 2.07. The value for VNVPGSCVCQCYSGYALAEDGKRC was 2.28; that for VNVPGSNVCQCYSGYALAEDGKRC was 1.06. Turning to VNVPGSQVCQCYSGYALAEDGKRC, the protein stability index was 2.14. On to VNVPGSFVCQCYEGYALAEDGKRC, for which the protein stability index is 2.1.

With VNVPGSFVCQCYPGYALAEDGKRC, the protein stability index worked out at 2.47. Consider VNVPGSFVCQCYKGYALAEDGKRC, for which the protein stability index was 1.58. The figure for VNVPGSFVCQCYYGYALAEDGKRC is 1.9; for VNVPGSFVCQCYRGYALAEDGKRC it is 1.85; for VNVDGSFVCQCYSGYALAEDGKRC it is 1.91. As for VNVAGSFVCQCYSGYALAEDGKRC, the protein stability index turned out to be 1.87.

Regarding VNVHGSFVCQCYSGYALAEDGKRC, the protein stability index came out at 1.47. Turning to VNVKGSFVCQCYSGYALAEDGKRC, the protein stability index is 1.92.

Take VNVFGSFVCQCYSGYALAEDGKRC: the protein stability index is 1.36. With VNVVGSFVCQCYSGYALAEDGKRC, the protein stability index was determined as 2.28. For VNVQGSFVCQCYSGYALAEDGKRC, the protein stability index is 2.97. Turning to VNVPGSFVCQCYSGEALAEDGKRC, the protein stability index came out at 2.5. With VNVPGSFVCQCYSGHALAEDGKRC, the protein stability index was 1.91. For VNVPGSFVCQCYSGGALAEDGKRC, the protein stability index amounted to 2.14. As for VNVPGSFVCQCYSGMALAEDGKRC, the protein stability index amounted to 2.19. The figure for VNVPGSFVCQCYSGPALAEDGKRC is 2.81.

On to VNVPGSFVCQCYSGNALAEDGKRC, for which the protein stability index was 2.19.

Turning to VNVPGSFVCQCYSGKALAEDGKRC, the protein stability index was 1.98. With VNVPGSFVCQCYSGWALAEDGKRC, the protein stability index worked out at 1.65.

With VNVPGSFVCQCYSGCALAEDGKRC, the protein stability index came out at 2.77.

Regarding VNVPGSFVCQCYSGSALAEDGKRC, the protein stability index was 3.02. The value for VNVPGSFVCQCYSGAALAEDGKRC was 2.56. For VNVPGSFVCQLYSGYALAEDGKRC, the protein stability index was determined as 2.19.

(Values after the supplement of paper PMC10567573.)
